B1: E3 ubiquitin-protein ligase RNF26 (Homo sapiens), Q9BY78 (parent)
chain: MEAVYLVVNGLGLVLDVLTLVLDLNFLLVSSLLASLAWLLAFVYNLPHTVLTSLLHLGRGVLLSLLALIEAVVRFTCGGLQALCTLLYSCCSGLESLKLLGHLASHGALRSREILHRGVLNVVSSGHALLRQACDICAIAMSLVAYVINSLVNICLIGTQNLFSLVLALWDAVTGPLWRMTDVVAAFLAHISSSAVAMAILLWTPCQLALELLASAARLLASFVLVNLTGLVLLACVLAVTVTVLHPDFTLRLATQALSQLHARPSYHRLREDVMRLSRLALGSEAWRRVWSRSLQLASWPNRGGAPGAPQGDPMRVFSVRTRRQDTLPEAGRRSEAEEEEARTIRVTPVRGRERLNEEEPPGGQDPWKLLKEQEERKKCVICQDQSKTVLLLPCRHLCLCQACTEILMRHPVYHRNCPLCRRGILQTLNVYL
partner: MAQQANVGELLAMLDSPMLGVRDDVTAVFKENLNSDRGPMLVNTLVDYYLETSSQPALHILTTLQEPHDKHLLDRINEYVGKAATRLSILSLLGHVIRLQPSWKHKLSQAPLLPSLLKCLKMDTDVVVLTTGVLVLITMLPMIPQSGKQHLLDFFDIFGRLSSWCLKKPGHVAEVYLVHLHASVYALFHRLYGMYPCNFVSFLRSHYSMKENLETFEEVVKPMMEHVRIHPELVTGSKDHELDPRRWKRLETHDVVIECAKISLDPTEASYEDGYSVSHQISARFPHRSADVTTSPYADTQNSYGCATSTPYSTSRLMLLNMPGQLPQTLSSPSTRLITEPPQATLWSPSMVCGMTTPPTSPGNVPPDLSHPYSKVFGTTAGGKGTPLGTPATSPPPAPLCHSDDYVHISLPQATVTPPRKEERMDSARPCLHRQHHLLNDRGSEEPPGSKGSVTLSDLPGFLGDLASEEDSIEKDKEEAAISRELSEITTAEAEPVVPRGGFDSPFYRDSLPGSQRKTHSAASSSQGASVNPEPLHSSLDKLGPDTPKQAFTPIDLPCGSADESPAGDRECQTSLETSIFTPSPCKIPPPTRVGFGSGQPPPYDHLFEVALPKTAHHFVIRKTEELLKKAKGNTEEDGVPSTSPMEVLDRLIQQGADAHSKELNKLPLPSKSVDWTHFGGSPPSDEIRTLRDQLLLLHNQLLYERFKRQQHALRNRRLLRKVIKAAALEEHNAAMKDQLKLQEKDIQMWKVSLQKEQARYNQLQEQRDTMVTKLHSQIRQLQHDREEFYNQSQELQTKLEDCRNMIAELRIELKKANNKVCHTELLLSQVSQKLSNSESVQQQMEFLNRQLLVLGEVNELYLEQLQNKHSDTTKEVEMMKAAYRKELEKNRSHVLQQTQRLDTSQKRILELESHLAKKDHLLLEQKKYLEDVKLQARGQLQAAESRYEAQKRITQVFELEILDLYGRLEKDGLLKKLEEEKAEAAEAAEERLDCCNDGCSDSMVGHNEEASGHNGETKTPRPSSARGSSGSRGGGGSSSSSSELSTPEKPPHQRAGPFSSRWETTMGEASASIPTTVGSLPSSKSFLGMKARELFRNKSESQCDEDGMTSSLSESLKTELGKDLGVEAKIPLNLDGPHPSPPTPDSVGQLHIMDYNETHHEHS

Variants of: B1
Details: with tsc1_human TSC1, Q92574

| effect of a mutation on the interaction | Variant |
| --- | --- |
| decreasing interaction | T348A |

Variants of: B1
Details: with tsc1_human TSC1, Q92574
Remark: another data set of the same source

| effect of a mutation on the interaction | Variant |
| --- | --- |
| increasing interaction | T348D |
